This passage reports Fold Shift of EC50 and Inhibition of Maximal Response results from patent publication US20110294738A1, “PTHR1 RECEPTOR COMPOUNDS” (priority 2008, published 2011).

* marks the point of attachment. Palmitoyl = CCCCCCCCCCCCCCCC(=O)*

B1: Compound 36 (peptide)
peptide: Palmitoyl-HSLIFMAFFSEKKYLWGFT-NH2
SMILES: CCCCCCCCCCCCCCCC(=O)N[C@@H](Cc1c[nH]cn1)C(=O)N[C@@H](CO)C(=O)N[C@@H](CC(C)C)C(=O)N[C@H](C(=O)N[C@@H](Cc1ccccc1)C(=O)N[C@@H](CCSC)C(=O)N[C@@H](C)C(=O)N[C@@H](Cc1ccccc1)C(=O)N[C@@H](Cc1ccccc1)C(=O)N[C@@H](CO)C(=O)N[C@@H](CCC(=O)O)C(=O)N[C@@H](CCCCN)C(=O)N[C@@H](CCCCN)C(=O)N[C@@H](Cc1ccc(O)cc1)C(=O)N[C@@H](CC(C)C)C(=O)N[C@@H](Cc1c[nH]c2ccccc12)C(=O)NCC(=O)N[C@@H](Cc1ccccc1)C(=O)N[C@H](C(N)=O)[C@@H](C)O)[C@@H](C)CC
B2: Compound 95 (peptide)
peptide: Palmitoyl-AGRSDTRQQYRKLLFS-NH2
SMILES: CCCCCCCCCCCCCCCC(=O)N[C@@H](C)C(=O)NCC(=O)N[C@@H](CCCNC(=N)N)C(=O)N[C@@H](CO)C(=O)N[C@@H](CC(=O)O)C(=O)N[C@H](C(=O)N[C@@H](CCCNC(=N)N)C(=O)N[C@@H](CCC(N)=O)C(=O)N[C@@H](CCC(N)=O)C(=O)N[C@@H](Cc1ccc(O)cc1)C(=O)N[C@@H](CCCNC(=N)N)C(=O)N[C@@H](CCCCN)C(=O)N[C@@H](CC(C)C)C(=O)N[C@@H](CC(C)C)C(=O)N[C@@H](Cc1ccccc1)C(=O)N[C@@H](CO)C(N)=O)[C@@H](C)O
B3: Compound 7 (peptide)
peptide: Palmitoyl-AYFRRLHSTRNYIH-NH2
SMILES: CCCCCCCCCCCCCCCC(=O)N[C@@H](C)C(=O)N[C@@H](Cc1ccc(O)cc1)C(=O)N[C@@H](Cc1ccccc1)C(=O)N[C@@H](CCCNC(=N)N)C(=O)N[C@@H](CCCNC(=N)N)C(=O)N[C@@H](CC(C)C)C(=O)N[C@@H](Cc1c[nH]cn1)C(=O)N[C@@H](CO)C(=O)N[C@H](C(=O)N[C@@H](CCCNC(=N)N)C(=O)N[C@@H](CC(N)=O)C(=O)N[C@@H](Cc1ccc(O)cc1)C(=O)N[C@H](C(=O)N[C@@H](Cc1c[nH]cn1)C(N)=O)[C@@H](C)CC)[C@@H](C)O
B4: Compound 48 (peptide)
peptide: Palmitoyl-RETNAGRSDTRQQRKLLKS-NH2
SMILES: CCCCCCCCCCCCCCCC(=O)N[C@@H](CCCNC(=N)N)C(=O)N[C@@H](CCC(=O)O)C(=O)N[C@H](C(=O)N[C@@H](CC(N)=O)C(=O)N[C@@H](C)C(=O)NCC(=O)N[C@@H](CCCNC(=N)N)C(=O)N[C@@H](CO)C(=O)N[C@@H](CC(=O)O)C(=O)N[C@H](C(=O)N[C@@H](CCCNC(=N)N)C(=O)N[C@@H](CCC(N)=O)C(=O)N[C@@H](CCC(N)=O)C(=O)N[C@@H](CCCNC(=N)N)C(=O)N[C@@H](CCCCN)C(=O)N[C@@H](CC(C)C)C(=O)N[C@@H](CC(C)C)C(=O)N[C@@H](CCCCN)C(=O)N[C@@H](CO)C(N)=O)[C@@H](C)O)[C@@H](C)O
B5: Compound 9 (peptide)
peptide: Palmitoyl-LAYFRRLHSTRNYI-NH2
SMILES: CCCCCCCCCCCCCCCC(=O)N[C@@H](CC(C)C)C(=O)N[C@@H](C)C(=O)N[C@@H](Cc1ccc(O)cc1)C(=O)N[C@@H](Cc1ccccc1)C(=O)N[C@@H](CCCNC(=N)N)C(=O)N[C@@H](CCCNC(=N)N)C(=O)N[C@@H](CC(C)C)C(=O)N[C@@H](Cc1c[nH]cn1)C(=O)N[C@@H](CO)C(=O)N[C@H](C(=O)N[C@@H](CCCNC(=N)N)C(=O)N[C@@H](CC(N)=O)C(=O)N[C@@H](Cc1ccc(O)cc1)C(=O)N[C@H](C(N)=O)[C@@H](C)CC)[C@@H](C)O
B6: Compound 94 (peptide)
peptide: Palmitoyl-AGRSDTRQQYRKLLFA-NH2
SMILES: CCCCCCCCCCCCCCCC(=O)N[C@@H](C)C(=O)NCC(=O)N[C@@H](CCCNC(=N)N)C(=O)N[C@@H](CO)C(=O)N[C@@H](CC(=O)O)C(=O)N[C@H](C(=O)N[C@@H](CCCNC(=N)N)C(=O)N[C@@H](CCC(N)=O)C(=O)N[C@@H](CCC(N)=O)C(=O)N[C@@H](Cc1ccc(O)cc1)C(=O)N[C@@H](CCCNC(=N)N)C(=O)N[C@@H](CCCCN)C(=O)N[C@@H](CC(C)C)C(=O)N[C@@H](CC(C)C)C(=O)N[C@@H](Cc1ccccc1)C(=O)N[C@@H](C)C(N)=O)[C@@H](C)O
B7: Compound 35 (peptide)
peptide: Palmitoyl-YLHSLIFMAFFSEKKYLWGFT-NH2
SMILES: CCCCCCCCCCCCCCCC(=O)N[C@@H](Cc1ccc(O)cc1)C(=O)N[C@@H](CC(C)C)C(=O)N[C@@H](Cc1c[nH]cn1)C(=O)N[C@@H](CO)C(=O)N[C@@H](CC(C)C)C(=O)N[C@H](C(=O)N[C@@H](Cc1ccccc1)C(=O)N[C@@H](CCSC)C(=O)N[C@@H](C)C(=O)N[C@@H](Cc1ccccc1)C(=O)N[C@@H](Cc1ccccc1)C(=O)N[C@@H](CO)C(=O)N[C@@H](CCC(=O)O)C(=O)N[C@@H](CCCCN)C(=O)N[C@@H](CCCCN)C(=O)N[C@@H](Cc1ccc(O)cc1)C(=O)N[C@@H](CC(C)C)C(=O)N[C@@H](Cc1c[nH]c2ccccc12)C(=O)NCC(=O)N[C@@H](Cc1ccccc1)C(=O)N[C@H](C(N)=O)[C@@H](C)O)[C@@H](C)CC
B8: Compound 47 (peptide)
peptide: Palmitoyl-KLRETNAGRSDTRQQRKLL-NH2
SMILES: CCCCCCCCCCCCCCCC(=O)N[C@@H](CCCCN)C(=O)N[C@@H](CC(C)C)C(=O)N[C@@H](CCCNC(=N)N)C(=O)N[C@@H](CCC(=O)O)C(=O)N[C@H](C(=O)N[C@@H](CC(N)=O)C(=O)N[C@@H](C)C(=O)NCC(=O)N[C@@H](CCCNC(=N)N)C(=O)N[C@@H](CO)C(=O)N[C@@H](CC(=O)O)C(=O)N[C@H](C(=O)N[C@@H](CCCNC(=N)N)C(=O)N[C@@H](CCC(N)=O)C(=O)N[C@@H](CCC(N)=O)C(=O)N[C@@H](CCCNC(=N)N)C(=O)N[C@@H](CCCCN)C(=O)N[C@@H](CC(C)C)C(=O)N[C@@H](CC(C)C)C(N)=O)[C@@H](C)O)[C@@H](C)O
B9: Compound 1 (peptide)
peptide: Palmitoyl-RRLHSTRNYIHMH-NH2
SMILES: CCCCCCCCCCCCCCCC(=O)N[C@@H](CCCNC(=N)N)C(=O)N[C@@H](CCCNC(=N)N)C(=O)N[C@@H](CC(C)C)C(=O)N[C@@H](Cc1c[nH]cn1)C(=O)N[C@@H](CO)C(=O)N[C@H](C(=O)N[C@@H](CCCNC(=N)N)C(=O)N[C@@H](CC(N)=O)C(=O)N[C@@H](Cc1ccc(O)cc1)C(=O)N[C@H](C(=O)N[C@@H](Cc1c[nH]cn1)C(=O)N[C@@H](CCSC)C(=O)N[C@@H](Cc1c[nH]cn1)C(N)=O)[C@@H](C)CC)[C@@H](C)O
B10: Compound 45 (peptide)
peptide: Palmitoyl-VRVLATKLRETNAGRSDTR-NH2
SMILES: CCCCCCCCCCCCCCCC(=O)N[C@H](C(=O)N[C@@H](CCCNC(=N)N)C(=O)N[C@H](C(=O)N[C@@H](CC(C)C)C(=O)N[C@@H](C)C(=O)N[C@H](C(=O)N[C@@H](CCCCN)C(=O)N[C@@H](CC(C)C)C(=O)N[C@@H](CCCNC(=N)N)C(=O)N[C@@H](CCC(=O)O)C(=O)N[C@H](C(=O)N[C@@H](CC(N)=O)C(=O)N[C@@H](C)C(=O)NCC(=O)N[C@@H](CCCNC(=N)N)C(=O)N[C@@H](CO)C(=O)N[C@@H](CC(=O)O)C(=O)N[C@H](C(=O)N[C@@H](CCCNC(=N)N)C(N)=O)[C@@H](C)O)[C@@H](C)O)[C@@H](C)O)C(C)C)C(C)C
B11: Compound 44 (peptide)
peptide: Palmitoyl-NIVRVLATKLRETNAGRSD-NH2
SMILES: CCCCCCCCCCCCCCCC(=O)N[C@@H](CC(N)=O)C(=O)N[C@H](C(=O)N[C@H](C(=O)N[C@@H](CCCNC(=N)N)C(=O)N[C@H](C(=O)N[C@@H](CC(C)C)C(=O)N[C@@H](C)C(=O)N[C@H](C(=O)N[C@@H](CCCCN)C(=O)N[C@@H](CC(C)C)C(=O)N[C@@H](CCCNC(=N)N)C(=O)N[C@@H](CCC(=O)O)C(=O)N[C@H](C(=O)N[C@@H](CC(N)=O)C(=O)N[C@@H](C)C(=O)NCC(=O)N[C@@H](CCCNC(=N)N)C(=O)N[C@@H](CO)C(=O)N[C@@H](CC(=O)O)C(N)=O)[C@@H](C)O)[C@@H](C)O)C(C)C)C(C)C)[C@@H](C)CC
B12: Compound 46 (peptide)
peptide: Palmitoyl-VLATKLRETNAGRSDTRQQ-NH2
SMILES: CCCCCCCCCCCCCCCC(=O)N[C@H](C(=O)N[C@@H](CC(C)C)C(=O)N[C@@H](C)C(=O)N[C@H](C(=O)N[C@@H](CCCCN)C(=O)N[C@@H](CC(C)C)C(=O)N[C@@H](CCCNC(=N)N)C(=O)N[C@@H](CCC(=O)O)C(=O)N[C@H](C(=O)N[C@@H](CC(N)=O)C(=O)N[C@@H](C)C(=O)NCC(=O)N[C@@H](CCCNC(=N)N)C(=O)N[C@@H](CO)C(=O)N[C@@H](CC(=O)O)C(=O)N[C@H](C(=O)N[C@@H](CCCNC(=N)N)C(=O)N[C@@H](CCC(N)=O)C(=O)N[C@@H](CCC(N)=O)C(N)=O)[C@@H](C)O)[C@@H](C)O)[C@@H](C)O)C(C)C

The target of the assay is PTHR1 receptor.
Chain of PTHR1 receptor (P25961 whole entry): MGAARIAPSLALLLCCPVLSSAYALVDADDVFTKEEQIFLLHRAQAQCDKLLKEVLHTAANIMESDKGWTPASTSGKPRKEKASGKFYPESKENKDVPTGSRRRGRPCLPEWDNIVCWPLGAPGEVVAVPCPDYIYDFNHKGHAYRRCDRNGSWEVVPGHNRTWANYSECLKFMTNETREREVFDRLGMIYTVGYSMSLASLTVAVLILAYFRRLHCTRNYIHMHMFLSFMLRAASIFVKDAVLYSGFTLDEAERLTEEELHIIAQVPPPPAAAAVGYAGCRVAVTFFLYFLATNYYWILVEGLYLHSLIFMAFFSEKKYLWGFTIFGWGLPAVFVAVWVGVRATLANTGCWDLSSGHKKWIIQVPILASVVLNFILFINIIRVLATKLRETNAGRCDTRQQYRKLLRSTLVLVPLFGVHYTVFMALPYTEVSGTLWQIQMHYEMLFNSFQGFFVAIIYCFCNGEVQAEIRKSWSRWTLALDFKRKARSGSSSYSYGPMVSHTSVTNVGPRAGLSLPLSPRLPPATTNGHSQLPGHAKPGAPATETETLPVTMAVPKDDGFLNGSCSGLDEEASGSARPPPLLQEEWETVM
As for B1, the Fold Shift of EC50 was 1.2 fold and the Inhibition of Maximal Response amounted to 5.9%.
In the case of B2, the Fold Shift of EC50 came out at 19 fold and the Inhibition of Maximal Response was -5.7%.
The matching figures for B3: 1.2 fold and 36%.
For B4 the same measures were 7 fold and -3.3%.
As for B5, the Fold Shift of EC50 worked out at 1.1 fold and the Inhibition of Maximal Response is 12.7%.
The matching figures for B6: 18.7 fold and -24.4%.
For B7 the same measures were 1.1 fold and 24.5%.
The matching figures for B8: 2.7 fold and 8.3%.
Regarding B9, the Fold Shift of EC50 was 1.3 fold and the Inhibition of Maximal Response came out at 5.5%.
For B10 the same measures were 1.4 fold and 9.1%.
The matching figures for B11: 2 fold and -8.3%.
For B12 the same measures were 0.9 fold and 20.3%.
